From the nanobody polyreactivity screen of Harvey et al. (2022)

Assay: yeast display, Sf9 membrane polyspecificity reagent, FACS + sequencing; frameworks hold sequencing errors
Outline: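 After 36–48 hours of galactose induction, yeast (Saccharomyces cerevisiae BJ5465) displaying a synthetic nanobody library were stained at 4 °C for 1 hour with 10% biotinylated, detergent-solubilized Sf9 membrane reagent. Streptavidin microbeads enriched the stained cells before FACS sorting into low and high (top ~1%) gates on anti-HA and streptavidin fluorescence. Each clone's polyreactivity label reflects its gate of origin.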

Sequence	polyreactivity (PSR sort gate)
QVQLVESGGGLVQAGGSLRLSCAASGITFWTYAMGWYRQAPGKERELVAAISKSGGSTYYADSVKGRFTISRDNAKYNVYLQLKSLKPEDTAVYYCAAKGLRYRDIDYDYWGQGTQVTVSW	low polyreactivity
QVQLVESGGGLVQAGGSLRLSCAASGITFWYYAMGWSRQEPGKERELVAGISRSDSNTYYADSVKGRFTISRDNAKNTLYLQMNSLKPEDTAVYYCSAYYYRRRYGGKYDYWGQGTQVTVSS	high polyreactivity
QVQLVESGGGLVQAGGSLRLSCAASGITFYDKAMGWYREAPGKERELVAGISYDGDSTYADSVKGRFTISRDNAKNTVYLQMNSLKPEDTAVYYCAALGPYDWLWAGDYWGQGTQVTVSS	low polyreactivity
QVQLVESGGGLVQAGGSLRLSCAASGITFYDNAMGWYRPAPGKERELVAGISYDGDSTYADSVKGRFTISRDNAKNTVYLQMNSLKPEDTAVYYCAALGPYDWLWAGDYWGQGTQVTVSS	low polyreactivity
QVQLVESGGGLVQAGGSLRLSCAASGITFYDNVMGWYRQAAGKERELVAAITSGGSTNYADSVKGRFTISRDNAKNTVYLQMNSLKPEDTAVYYCAAQPRVDYEFPYRYGYWGQGTQVTVSS	low polyreactivity
QVQLVESGGGLVQAGGSLRLSCAASGITFYDNVMGWYRQAPGKERELVAAITDSGGSTYYADSVKGRFTISRDNAKNTVYLQMNSLKPEDTAVYYCNADVNAHWWWYIEEYWGQGTQVTVSS	low polyreactivity
QVQLVESGGGLVQAGGSLRLSCAASGITFYDYAMGWYRQAPGKEREFFARITASGARTYYADSVKGRFTISRDNAKNTVYLQMNSLKPEDTAVYYCAVRGGRPSRRHYDKYDYWGQGTQVTVSS	low polyreactivity
QVQLVESGGGLVQAGGSLRLSCAASGITFYEYAMGLYRKAPGKERELVAAISDRGGSTYYADSVKGRFTISRDNSKNTVYLQLNSLKPEDTAVYYCAGRNTPAQLDYWGQGTQVTVSS	low polyreactivity
QVQLVESGGGLVQAGGSLRLSCAASGITFYEYTMGWYRQAPGKETELVAVIRKTGGSTYYADSVKGRFTISRDNAKNTVYLQMNSLKPEDTAVYYCNARYGGSGRVPRSYDYWGQGTQVTVSS	high polyreactivity
QVQLVESGGGLVQAGGSLRLSCAASGITFYFYAMGCERQAPGKERELVAAINRSGSSTYYADSVKGRFTISRDNAKTSVYLQMNSLNPEDTAVYYFAAGWYPWAYEDWGQGTQVTVTS	high polyreactivity
QVQLVESGGGLVQAGGSLRLSCAASGITFYGNAMGWYRQAPGKERELVAAITASGGRTYYADSVKGRFTISRDNAKNTVYLQMNSLKPEDTAVYYCAAKKATVVYRMEYWGQGTQVTVSS	high polyreactivity
QVQLVESGGGLVQAGGSLRLSCAASGITFYGNAMGWYRQAPGKERELVANTYYADSVKGRFTISRDNAKNTVYLQMNSLKPEDTAVYYCNVLFADKSDYWGQGTQVTVSS	low polyreactivity
QVQLVESGGGLVQAGGSLRLSCAASGITFYGYAMGWYRQAPGKERELVAAITSGGSTYYADSVKGRFTISRDNAKNTVYLQMNSLKPEDTAVYYCARYYWIRVGRYYRYEYWGQGTQVTVSS	low polyreactivity
QVQLVESGGGLVQAGGSLRLSCAASGITFYGYAMGWYRQAPGKERELVARISRGGRTYYADSVKGRFTISRDNAKNTVYLQMNSLKPEDTAVYYCAAGKYWYAGKYLYDYWGQGTQVTVSS	high polyreactivity
QVQLVESGGGLVQAGGSLRLSCAASGITFYGYAMGWYRQEPGKERELVATISSGGGTNYADSVKGRFTISRDNAKNTVYLQMNSLKPEDTAVYYCATDLSTVDYNYWGQGTQVTVSS	low polyreactivity
QVQLVESGGGLVQAGGSLRLSCAASGITFYGYVMGWYRQAPGKERELVAAISTSGGSTYYADSVKGRFTISRDNAKNTVYLQMNSLKPEDTAVYYCAKYLYPFYPDYDYWGQGTQVTVSS	high polyreactivity
QVQLVESGGGLVQAGGSLRLSCAASGITFYHYAMGWYRQAPGKERELVAAISVSGGRTYYADSVKGRFTISRDNAKITVYLQMNSLKPEDTAVYYCAKVSQVRGFYYWGQGTQVTVSS	high polyreactivity
QVQLVESGGGLVQAGGSLRLSCAASGITFYIYAMGWSRQAPGKEREFVASITWRGGSTYYADSVKGRFTISRDNAKNTVYLQMNSLKPEDTAVYYCNAEYSSSRYWYYDYWGQGTQVTVSS	high polyreactivity
QVQLVESGGGLVQAGGSLRLSCAASGITFYIYAMGWYRQAPGKEREFVASITWRGGSTYYADSVKGRFTISRDNAKNTVYLQMNSLKPEDTAVYYCNAEYSSSRYWYYDYWGQGTQVTVSS	high polyreactivity
QVQLVESGGGLVQAGGSLRLSCAASGITFYIYAMGWYRQAPGKERELVAAISDDGSTHYADSVKGRFTISRDNAKNTVYLHMNSLKPEDTAVYYCNADYYWFFDFFDYDYWGQGTQVTVSS	low polyreactivity
QVQLVESGGGLVQAGGSLRLSCAASGITFYLYAMGWYRQAPGKERELVAAISGRGGITYYADSVKGRFTISRDNAKNTVYLQMNSLKPEDTAVYYCAAGKLIWGQGTQVTVSS	high polyreactivity
QVQLVESGGGLVQAGGSLRLSCAASGITFYPYAMGWYRQAPGKERELVAAISFSGGSTYYADSVKGRFTISRDNAKNTVYLQMNSLKPEDTAVYYCAADRRSGDDYWGQGTQVTVSS	high polyreactivity

Sequence	polyreactivity (PSR sort gate)
QVQLVESGGGLVQAGGSLRLSCAASGITFYPYAMGWYRQAPGTERELVAAITGSGGRTYYADSVKGRFTISRDNAKNTVYLQMNSLKPEDTAVYYCAKVARYPDMGYWGQGTQVTVSS	high polyreactivity
QVQLVESGGGLVQAGGSLRLSCAASGITFYTYVMGWYRQAHGKERELVAAITNADSTYYADSVKGRFTISRDNAKNTVYLQMNSLKPEDTAVYYCAADWYWGGIVDSWGQGTQVTVSS	high polyreactivity
QVQLVESGGGLVQAGGSLRLSCAASGITFYVNAMGWYRQAPGKERELVAAINSGSTNYADSVKGRFTISRDNAKNTVYLQMNSLKPEDTAVYYCAVDVYWEFSPEYDYWGQGTQVTVSS	low polyreactivity
QVQLVESGGGLVQAGGSLRLSCAASGITFYVNAMGWYRQAPGKERELVAAITQSVDITSYADSVKGRFTISRDNAMNTFYLQINRLKPEYTAVYYCATRGIPDDNARDYWGQGTQVTVSS	low polyreactivity
QVQLVESGGGLVQAGGSLRLSCAASGITFYVYAMGWYRQAPGKERELVAAISGSGGNTYYADSVKGRFTISRDNAKNTVYVQMNSLKPEDTAVYYCNADDHSPYYCDLDYWGQGTQVTVSS	low polyreactivity
QVQLVESGGGLVQAGGSLRLSCAASGITFYYYAMGWYRPAPGKERELVADITGTGSRTYYADSVKGRFTISRDNAKNTVYLQMNSLKPEDTAVYYCAATKRFPWFVYGEGDSWGQGTQVTVSS	high polyreactivity
QVQLVESGGGLVQAGGSLRLSCAASGITFYYYAMGWYRQAPGKERELVAAISTRDGNTYYADSVKGRFTISRDNAKNTVYLQMNSLKPEDTAVYYCAADYFRYYPYDYWGQGTQVTVSS	low polyreactivity
QVQLVESGGGLVQAGGSLRLSCAASGITFYYYAMGWYRQAPGKERELVASISSVGSTYYADSVKGRFTISRDNAKNTVYLQMNSLKPEDTAVYYCAAVDYVRYYPDEFDYWGQGTQVTVSS	low polyreactivity
QVQLVESGGGLVQAGGSLRLSCAASGITFYYYTMGGYRQAPGKERELVAGITRGGRTYYADSVKGRFTISRDNAKNTVYLQMNSLKPEDTAVYYCNADPWWRFDYWGQGTQVTVSS	low polyreactivity
QVQLVESGGGLVQAGGSLRLSCAASGITFYYYTMGWYRQAPGKERELVAAITSRGGNTYYADSVKGRFTISRDYAKNTVYLQMNSLKPEDTAVYFCAASRFSSRGYGYWGQGTQVTVCS	high polyreactivity
QVQLVESGGGLVQAGGSLRLSCAASGITFYYYVMGWYRQAPGKERELVASISRGGSTYYADSVKGRFTISRDNAKNTVYLQMNSLKPEDTAVYYCAAAGNRPWSITPFRKRYGYNYWGQGSQVTVSS	high polyreactivity
QVQLVESGGGLVQAGGSLRLSCAASGITIKRYPMGWYRQAPGKEREFVATSSQSGTSTYYADSVKGRFTISRDNAKYTVYLQLNSLKPEDTAVYYCAADYIGYWYGYYSWGQGTQVTVSS	low polyreactivity
QVQLVESGGGLVQAGGSLRLSCAASGITIRYYTMGWYRQAPGKERELVASISWSGTSTHYADSVKGRFTISRDNAKNTVYLQMNSLKPEDTAVYYCAATITSLAGGYRNGYTSYYWGQGTQVTVSS	high polyreactivity
QVQLVESGGGLVQAGGSLRLSCAASGITIRYYTMGWYRQAPGKESELVASISWSGTSTHYADSVKGRFTISRDNAKNTVYLQMNSLKPEDTAVYYCAATITSLAGVYRNGYTSYYWGQGTQVTVSS	high polyreactivity
QVQLVESGGGLVQAGGSLRLSCAASGITISYYAMGWYRQAPGKERELVAAISFSGARTYYADSVKGRFTISRDNAKNTVYLQMNSLKPEDTAVYYCNAVSGIVQRYDYWGQGTQVTVSS	high polyreactivity
QVQLVESGGGLVQAGGSLRLSCAASGITIVRYAMGWYRQAPGKERELVAAINRSGGSTYYADSVKGRFTISRDNAKNTVYLQMNSLKPEDTAVYYCAARLYGKYDPPGYYYWGQVTQVTVSS	high polyreactivity
QVQLVESGGGLVQAGGSLRLSCAASGITIWGYTMGWYRQAPGKERELVAAITSTGSTYYADSVKGRFTISRDNAKNHVYFQMNSQKPEDTSVYYCAATRGSSDYYYWGQGTQVTVSS	low polyreactivity
QVQLVESGGGLVQAGGSLRLSCAASGITIYIYAMGWYRQAPGKERELVAAISDVGSTHYADSVKGRFTISRDNAKNTVYLQMNSLKPEDTAVYYCNADYYWFFVFFDYDYWGQGTQVSVSS	low polyreactivity
QVQLVESGGGLVQAGGSLRLSCAASGITLALYAMGWYIQAPGKERELVAAISWTGGSTYYADSVKGRFTISRDNAKNTVYLQMNSLKPEDPAVYYCNAVPGPPHSYLGGDYWGQGTQVTVSS	high polyreactivity
QVQLVESGGGLVQAGGSLRLSCAASGITLARNAMGWYRQAPGKERELVASITWSGGTTYYADSVKGRFTISRDNAKNTVYLQMISLKPEDTAVYYCAASAKLHYYRTYRYNYWGQGTQVSVSS	high polyreactivity
QVQLVESGGGLVQAGGSLRLSCAASGITLFYSAMGWYRQAPGKERELVAAISWSGGSTYYADSVKGRFTISRDNAKNTVYLQMNSLKPEDTAVYYCAAGYIRFYRSREYWGQGTQVTVSS	high polyreactivity
